Measured values reported in article PMC10360031.

How the values were obtained:
[1] = biological target: recombinant human Vim (human) (UniProt P08670); test: quartz crystal microbalance with dissipation (QCM-D); pH 7.4
[2] = biological target: recombinant human Vim (human) (UniProt P08670); test: AFM single-molecule force spectroscopy
[3] = biological target: recombinant human Vim (human) (UniProt P08670); test: quartz crystal microbalance with dissipation (QCM-D)

Chain of recombinant human Vim (human) (P08670 whole entry): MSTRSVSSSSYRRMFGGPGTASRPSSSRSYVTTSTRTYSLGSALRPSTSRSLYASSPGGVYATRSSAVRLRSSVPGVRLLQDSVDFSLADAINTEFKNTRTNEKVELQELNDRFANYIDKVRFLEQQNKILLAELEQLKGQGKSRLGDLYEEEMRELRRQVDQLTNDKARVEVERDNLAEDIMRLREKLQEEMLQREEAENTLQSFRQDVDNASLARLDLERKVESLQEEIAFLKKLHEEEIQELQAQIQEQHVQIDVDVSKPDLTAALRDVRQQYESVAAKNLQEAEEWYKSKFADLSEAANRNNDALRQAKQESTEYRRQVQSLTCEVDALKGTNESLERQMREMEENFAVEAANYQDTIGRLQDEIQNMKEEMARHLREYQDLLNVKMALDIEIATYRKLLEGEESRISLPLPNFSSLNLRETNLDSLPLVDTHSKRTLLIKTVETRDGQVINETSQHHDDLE

wild-strain SARS-CoV-2 spike protein RBD (from UniProt P0DTC2) (domain or fragment)
adsorbed amount [1]: 1 mg m^–2 | binding probability (specific adhesion events) (% of force curves) [2]: < 20 | rupture force at 5 um/s [2]: 58 pN | Ka (equilibrium adsorption constant), fraction I [3]: 0.0011 cm | Ka (equilibrium adsorption constant), fraction II [3]: 0.46 cm | Keq, fraction I [3]: 4.7e+06 L mol^–1 | Keq, fraction II [3]: 9.2e+08 L mol^–1 | desorption time, loosely bound fraction [3]: 200 s | desorption time, tightly bound fraction [3]: > 10000 s | kd' (desorption constant), fraction I [3]: 0.063 s^–1 | kd' (desorption constant), fraction II [3]: 0.00015 s^–1
